Laboratory results published in patent publication US20110076265A1 (POMONA RICERCA S R L, published 2011).

Target: T1, HA protein (H1-subtype hemagglutinin) of influenza A virus A/California/04/2009 (influenza A virus A/California/04/2009 …, UniProt P26140 18-566)
T1 construct: also called H1 HA (A/California/04/2009)
Assay: FACS on fixed HEK 293T cells transfected with HA construct, Fab49 at 10 µg/ml

B1: Fab49 (human monoclonal Fab fragment produced by bacterial clone INF49) (Fab, V domains shown)
VH: LESGGGLVQPGGSLRLSCAASGITFSSYAMSWVRQAPGKGLEWVSTVNSGGGSTYYGDSVRGRFTISRDNSKSTLYLQLNSLRAEDTAIYYCAKDKGRPIFGLVTPSYYMDVWGNGT
VL: ELTQSPSSLSASVGDSVTITCRTSERISTYLNWYQQKPGKAPRLLVSGASTLQGGVPSRFSGSGSGTAFTLTINSLQPEDFATYYCQQSYSTPLTFGGGT
- binding result: binds
